Experimental findings from US12012446B2, “Epstein-Barr virus antibodies and uses thereof” (priority 2017, dated 2024) are described below.

Assay [1] deals with EBV-eGFP infection of Raji cells. Nature of the assay: EBV neutralization assay in Raji cells. It is filed as cell-based, Epstein-Barr virus. To be noted: for neutralization of EBV in Raji cells (in words): spin-column purified mAbs, 12.5, 25, 50 and 100 μg/ml. On the procedure:
EBV neutralization assay was performed in Raji cells as previously described (47). Briefly, purified individual anti-gp350 mAbs were incubated with purified AGS-EBV-eGFP (titer calculated to infect at least 8% of HEK293 cells seeded in 100 μl of serum-free DMEM) for 2 hours at 37° C. To represent EBV infection of B cells, the pre-incubated anti-gp350 mAbs/AGS-EBV-eGFP were used to infect 5×10^5 Raji cells seeded in a 96-well plate for 2 hours at 37° C. Neutralizing 72A1 and non-neutralizing 2L10 anti-gp350 mAbs served as positive and negative controls, respectively. Infected cells were washed three times with PBS to remove any unbound viruses and antibodies. Washed, infected cells were incubated in 96-well plates at 37° C. for 48 hours post-infection and the number of eGFP+ (infected) cells was determined using flow cytometry. All dilutions were performed in quintuplicate and the assays were repeated three times. Antibody EBV neutralization activity was calculated as: % neutralization=(EBValone−EBVmAb)/(EBValone)×100.
However, this antibody was recently reported to be a mixture of both functional and non-functional antibodies (50). […] The percentage of eGFP+ cells (percent infection) was determined using flow cytometry as described (47). The nAbs 72A1 and E1D1 were used as positive controls, whereas the anti-gp350 non-neutralizing mAb 2L10 and KSHV gH/gL mAb 54A1 were used as negative controls. Because HB4, HB13, HB15, HB16, HB19, HB21, and HB23 were confirmed to be polyclonal based on isotyping and/or sequence data, they were eliminated from further consideration in the neutralization assay. HB18 was not used in neutralization experiments because it was identical to HB8.
The purified eGFP-tagged-EBV was titered in Raji cells to determine percent EBV infection using a range of volumes (50-250 μl) (FIG. 5A). Then initial neutralization of EBV was conducted in Raji cells using purified mAbs at various concentrations (12.5, 25, 50, and 100 μg/ml).
EBV-eGFP+ cells were enumerated using flow cytometry.

In assay [2] the target is T1, purified EBV gp350/220 (recombinant EBV gp350 ectodomain) (Epstein-Barr virus, UniProt P03200).
T1 construct: purified EBV gp350 ectodomain protein (AA 4-863); purchased Immune Technology Corporation
T1 sequence (P03200 4-863): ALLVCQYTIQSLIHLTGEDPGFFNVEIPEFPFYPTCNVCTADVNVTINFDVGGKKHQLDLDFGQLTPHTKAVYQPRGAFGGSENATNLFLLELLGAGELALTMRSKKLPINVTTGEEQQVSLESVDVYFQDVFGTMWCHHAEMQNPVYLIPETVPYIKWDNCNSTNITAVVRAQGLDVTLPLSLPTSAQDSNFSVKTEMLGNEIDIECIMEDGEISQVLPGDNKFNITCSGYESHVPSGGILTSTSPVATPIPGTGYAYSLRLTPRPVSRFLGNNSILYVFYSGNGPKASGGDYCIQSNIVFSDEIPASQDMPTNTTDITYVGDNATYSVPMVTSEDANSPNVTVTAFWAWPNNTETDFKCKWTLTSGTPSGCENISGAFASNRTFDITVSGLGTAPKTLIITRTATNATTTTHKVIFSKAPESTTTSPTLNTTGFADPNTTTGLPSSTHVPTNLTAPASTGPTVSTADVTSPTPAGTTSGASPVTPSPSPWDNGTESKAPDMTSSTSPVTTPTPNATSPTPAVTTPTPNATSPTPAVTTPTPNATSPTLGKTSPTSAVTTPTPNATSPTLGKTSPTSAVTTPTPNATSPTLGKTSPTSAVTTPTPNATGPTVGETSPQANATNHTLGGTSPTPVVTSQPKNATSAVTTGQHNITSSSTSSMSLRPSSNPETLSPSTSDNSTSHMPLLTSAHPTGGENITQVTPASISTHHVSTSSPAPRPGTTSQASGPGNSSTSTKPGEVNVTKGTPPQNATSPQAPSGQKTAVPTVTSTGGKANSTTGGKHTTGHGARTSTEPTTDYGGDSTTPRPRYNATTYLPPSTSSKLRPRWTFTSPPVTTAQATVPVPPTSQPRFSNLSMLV
Nature of the assay: Indirect ELISA on recombinant EBV gp350 ectodomain. It is filed as binding. To be noted: for ELISA binding to purified EBV gp350/220: purified antibodies 10 μg/ml; for ELISA binding strength to gp350, compared with m72A1 / parental antibody: soluble gp350 0.5 μg/ml. On the procedure: Briefly, immunoplates (Costar 3590; Corning Incorporated) were coated with 50 μl of 0.5 μg/ml recombinant EBV gp350 ectodomain (Immune Technology Corporation) diluted in 1× phosphate buffered saline (PBS, pH 7.4) and incubated overnight at 4° C. After washing three times with 1×PBS containing 0.05% (v/v) Tween 20 (washing buffer), plates were blocked with 100 μl washing buffer containing 2% (w/v) bovine serum albumin (BSA) (blocking buffer) then incubated for 1 h at room temperature and washed as above. 100 μl of hybridoma supernatant or 50 μl of 10 μg/ml purified mAbs was added to each well (in triplicate) and incubated for 2 h at room temperature. […] The plates were washed as described above, followed by incubation with 50 μl of goat anti-mouse IgG HRP-conjugated secondary antibody (1:2,000 diluted in 1×PBS) at room temperature for 1 h. The plates were washed again and 100 μl of chromogenic substrate 2,2′-azino-bis (3-ethylbenzothiazoline-6-sulphonic acid) (ABTS, Life Science Technologies) was added. The reaction was stopped using 100 μl of ABTS peroxidase stop solution containing 5% sodium dodecyl sulfate (SDS) in water. The absorbance was read at an optical density of 405 nm using an ELISA reader (Molecular Devices). All experiments were performed in triplicate and confirmed in three independent experiments.
ELISA binding of anti-gp350 and anti-gH/gL to soluble gp350 and gH/gL proteins was performed. Soluble EBV gp350 and gH/gL proteins were used as the target antigen at 0.5 μg/ml. 1× phosphate buffered saline (PBS) was used as negative (not shown) control. Bound antibodies were detected using HRP-conjugated anti-mouse or anti-human IgG (1:2,000).

For assay [3], the target named is T2, EBV gp350 stably expressed on CHO cells (Epstein-Barr virus, UniProt P03200).
T2 construct: stably co-transfected with full-length pCAGGS-gp350/220 and pCI-puro vector; expressed in transfected cells; host or cells: CHO cells
T2 sequence (P03200 whole entry): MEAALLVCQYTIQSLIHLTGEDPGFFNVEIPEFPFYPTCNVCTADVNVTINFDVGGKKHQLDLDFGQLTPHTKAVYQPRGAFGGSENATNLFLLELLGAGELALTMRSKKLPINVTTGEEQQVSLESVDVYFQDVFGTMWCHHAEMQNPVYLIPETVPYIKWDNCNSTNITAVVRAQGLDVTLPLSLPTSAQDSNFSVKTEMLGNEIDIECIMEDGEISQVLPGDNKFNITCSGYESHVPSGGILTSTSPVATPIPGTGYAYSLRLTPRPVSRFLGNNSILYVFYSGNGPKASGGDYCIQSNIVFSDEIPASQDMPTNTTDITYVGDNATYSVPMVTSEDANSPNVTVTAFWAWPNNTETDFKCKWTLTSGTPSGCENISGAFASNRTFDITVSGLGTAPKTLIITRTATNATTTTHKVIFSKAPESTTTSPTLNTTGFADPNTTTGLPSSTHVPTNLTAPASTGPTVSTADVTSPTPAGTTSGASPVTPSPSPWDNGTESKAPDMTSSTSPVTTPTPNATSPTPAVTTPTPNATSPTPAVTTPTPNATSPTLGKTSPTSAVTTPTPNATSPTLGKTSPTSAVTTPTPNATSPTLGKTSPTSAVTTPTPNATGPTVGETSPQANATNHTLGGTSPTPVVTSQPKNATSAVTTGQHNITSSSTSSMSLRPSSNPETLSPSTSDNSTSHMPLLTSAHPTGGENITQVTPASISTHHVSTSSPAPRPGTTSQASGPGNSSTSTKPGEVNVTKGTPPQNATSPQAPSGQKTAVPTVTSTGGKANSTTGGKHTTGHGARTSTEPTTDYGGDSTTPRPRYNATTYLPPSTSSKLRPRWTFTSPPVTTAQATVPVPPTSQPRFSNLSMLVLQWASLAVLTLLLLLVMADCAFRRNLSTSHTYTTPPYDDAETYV
The assay can be described thus: Epitope mapping by competitive cell binding assay with biotinylated mAbs. On the procedure: To evaluate conformation epitope mapping of the selected mAbs, competitive binding assays were conducted using biotinylated mAbs. A one-step antibody biotinylation kit (MACS Miltenyi Biotec) was used to biotinylate the mAbs. Approximately 1×10^5 CHO cells that stably expressed EBV gp350 were incubated for 2 hours with serially diluted ([…]) unlabeled competitor mAbs and non-specific anti-KSHV gH/gL 54A1 mAb. After being washed with PBS, the cells were incubated for 2 hours in the presence of 1 μg/ml biotinylated mAbs. To determine maximum binding, cells in which the biotinylated mAb was added in the absence of unlabeled mAbs were included in the assay. Cells were washed with PBS, followed by incubation for 1 hour with anti-biotin AF488 at a dilution of 1:500. After the final wash in PBS, cells were resuspended in 1% paraformaldehyde and analyzed by flow cytometry as described above. Percentage of inhibition was calculated as: 100−[(% fluorescent cells with competitor mAb/% fluorescent cells without competitor mAb)×100]. The complete prevention of binding of a biotinylated mAb by its unlabeled counterpart was used as a validation of the assay, as previously described (84).
At least seven unique CD21 binding epitopes on EBV gp350 have been predicted (Table 3).

B1: HB8: murine anti-EBV gp350 mAb, IgG1 κ; SEQ ID NO: 114 / 115; HB18 has identical VH and VL (antibody, V domains shown)
VH: PELKKPGETVKISCKASGYSFTNYGMNWVKQAPGKGLKWMGWINTYTGEPTYADDFKGRFAFSLETSASTAFLQINNLKNEDTATYLCARYYYGSVYSAWFAYWGQGTLVTVSAAKTTPPSVYPLAPGSAAQTNSMVTLG
VL: LSLPVSLGDQASISCRSSQSIVHSNGNTYLEWYLQKAGQSPKLLIYKVSNRFSGVPDRFGGSGSGTDFTLKISRVEAEDLGVYYCFQGSHVPYTFGGGTKLEIKRADAAPTV
modifications: heavy chain mAb HB8; light chain mAb HB8
notes: murine anti-EBV gp350 mAb, IgG1 κ; HB18 has identical VH and VL
For the molecule B1, the “neutralization of EBV in Raji cells (in words)” value (“neutralization of EBV” below) in assay [1] is “failed to neutralize EBV infection”. The “ELISA binding to purified EBV gp350/220” value in assay [2] is reported as “+”.

B2: HB10: murine anti-EBV gp350 mAb, IgG1 κ; SEQ ID NO: 118 / 119; non-nAb (protein)
chain 1: LSLPVSLGDQASISCRSSQSIVHSNGNTYLEWYLQKAGQSPKLLIYKVSNRFSGVPDRFGGSGSGTDFTLKISRVEAEDLGVYYCFQGSHVPYTFGGGTKLEIKRADAAPTV
chain 2: SSLSASLGDRVTISCRASQDIGNYLNWYQQKPDGTVKLLIYYTSRLHSGVPSRFSGSGSGTDYSLTISNLEEEDIATYFCQQGNTLPPTFGGGTKLEIKRADAAPTV
modifications: heavy chain mAb HB10; light chain mAb HB10
notes: murine anti-EBV gp350 mAb, IgG1 κ; non-nAb
With B2, the “% inhibition of biotinylated nAbs (biotinylated m72A1)” value in assay [3] (unlabeled mAb 67.5 μg/ml, biotinylated m72A1 1 μg/ml) turned out to be 13%; in assay [3] (unlabeled mAb 125 μg/ml, biotinylated m72A1 1 μg/ml) it was 16%; in assay [3] (unlabeled mAb 250 μg/ml, biotinylated m72A1 1 μg/ml), 14%; in assay [3] (unlabeled mAb 500 μg/ml, biotinylated m72A1 1 μg/ml), 12%. In addition, in assay [1] (protein G and size-exclusion chromatography-purified mAbs, highest concentration 100 μg/ml), the “blocking of EBV infection of Raji cells (nAb activity)” value is less than 50%. Also, the “neutralization of EBV” value in assay [1] was “failed to neutralize EBV infection”. For the same molecule, the “ELISA binding to purified EBV gp350/220” value in assay [2] was “+”.

B3: HB6: murine anti-EBV gp350 mAb, IgG1 κ; SEQ ID NO: 110 / 111 (antibody, V domains shown)
VH: PELRKPGETVKISCKASGYTFTDYSMHWVKQTPGKGLKWMGWINTRTGEPRYADDFKGRFAFSLETSASTAYLQINNLKNEDTATYFCAPYGYALDYWGQGTSVTVSSAKTTPPSVYPLAPGSAAQTNSMVTLG
VL: AILSASPGEKVTMTCRATSSVNYMHWYQQKPGSSPKPWIYATSNLASGVPARFSGSGSGTSYSLTISRVEAEDAATYYCQQWSSNPPTFGAGTKLELKRADAAPTV
modifications: heavy chain mAb HB6; light chain mAb HB6
B3: the “neutralization of EBV” value in assay [1] is listed as “failed to neutralize EBV infection”. For the same molecule, the “ELISA binding to purified EBV gp350/220” value in assay [2] is reported as “+”.

B4: HB7: murine anti-EBV gp350 mAb, IgG1 κ; SEQ ID NO: 112 / 113 (antibody, V domains shown)
VH: AELVRPGASVKLSCKALGYTFTDYEMHWVKQTPVHGLEWIGTISPGRSGTAYNQKFKGKATLTADKSSRTAYMELNSLTSEDSAVYYCSRYGHPSYLDVWGAGTTVTVSSAKTTPPSVYPLAPGSAAQTNSMVTLG
VL: KFMSTSVGDRVNITCKASQSVGNAVAWFQQKPGQSPKLLIYSASNRYTGIPDRFTGSGSGTDFTLTCNNMQSEDLADYFCQQYSSYPLTFGAGTKLELKRADAAPTV
modifications: heavy chain mAb HB7; light chain mAb HB7
With B4, in assay [1], the “neutralization of EBV” value is “failed to neutralize EBV infection”. In addition, in assay [2], the “ELISA binding to purified EBV gp350/220” value was “+” and the “ELISA binding strength to gp350, compared with m72A1 / parental antibody” value was “equal to or greater than that of the positive control, m72A1”.

B5: HB1: murine anti-EBV gp350 mAb, IgG1 κ; heavy chain SEQ ID NO: 102, light chain SEQ ID NO: 103; neutralizing (antibody, V domains shown)
VH: PGLVAPSQSLSITCTVSGFLLTTYGVHWVRQPPGKGLEWLGVIWAGGSTNYNSALMSRLSINKDISKSQVFLKMNSLQTDDTAMYYCTRDRGYGYLYAMDYWGQGTSVTVSSAKTTPPSVYPLAPGSAAQTNSMVTLG
VL: KFMSTSVGDRVSVTCKASQNVGTNVAWYQQKPGQSPKALIYSTSSRYTGVPDRFAGSGSGTDYTLTISNVQSEDLAEYFCQQYNTYPYTFGGGTRLDIKRADAAPTV
modifications: heavy chain mAb HB1; light chain mAb HB1
notes: murine anti-EBV gp350 mAb, IgG1 κ; neutralizing
On to B5, for which the “competitive binding versus m72A1 and h72A1 (in words)” value in assay [3] (biotinylated antibodies) is “bound targets that overlapped with those of both m72A1 and h72A1”. For the same molecule, in assay [3] (biotinylated m72A1 1 μg/ml, unlabeled mAbs 500-67.5 μg/ml), the “antigen binding competition with biotinylated m72A1 (in words)” value was “Antigen binding competition was observed”. For the same molecule, the “blocking of EBV infection of Raji cells (in words)” value in assay [1] (protein G and size-exclusion chromatography-purified mAbs, 12.5-100 μg/ml) is listed as “blocked EBV infection in a dose-dependent manner”. Further, the “neutralization of EBV” value in assay [1] is “dose-dependent neutralization”. The “ELISA binding to purified EBV gp350/220” value in assay [2] is recorded as “+”.

B6: HB14: murine anti-EBV gp350 mAb, IgG1 κ; SEQ ID NO: 124 / 125 (antibody, V domains shown)
VH: SGAELVRPGASVNLSCKALGYTFTDYEMHWVKQTPVYGLEWIGTIHPRRGGTAYNQRFKGKAALTADKSSSTAYMELSSLTSEDSAVYYCARYGYPWYFDVWGAGTTVTVSS
VL: LSLPVSLGDQASISCRSSQSIVHDNGNTYLEWYLQKPGQSPKLLIYKVSNRFSGVLDKFSGSGSGTDFTLKISRVEAEDLGIYYCFQGSHVPPTFGGGTKLEIK
modifications: heavy chain mAb HB14; light chain mAb HB14
Regarding B6, the “neutralization of EBV” value in assay [1] is listed as “failed to neutralize EBV infection”. Besides, in assay [2], the “ELISA binding to purified EBV gp350/220” value was “+” and the “ELISA binding strength to gp350, compared with m72A1 / parental antibody” value is given as “equal to or greater than that of the positive control, m72A1”.
